Earlier results on one substance are cited in publication PMC11349558.

The data set concerns the target histone H4 (UniProt P62805).

With “fibrinogen D-domain (from UniProt P02671)”, the Kd (commonly a measure of binding affinity in units of concentration) is 2 nM.
